Laboratory results taken from publication PMC3125217.

Legend:
Test in all cases: inhibition of PE/PC monolayer binding (surface pressure, Wilhelmy technique); spectrin polypeptides preincubated 30 min at room temperature with ankSBD, then injected under a PE/PC 3:2 monolayer; 5 mM Tris/HCl pH 7.5, 0.5 mM EDTA, 150 mM NaCl, 0.5 mM dithiothreitol, 1 mM NaN3; 21°C
[1] = biological target: ankBDn triple mutant CLSC (W1771C, M1778S, W1779C) (UniProt P11277)
[2] = biological target: ankBDn triple mutant SSSW (W1771S, L1775S, M1778S) (UniProt P11277)
[3] = biological target: recombinant ankyrin-binding domain of erythroid β-spectrin (ankBDn), wild type (UniProt P11277)

Ki [1]: 0.17 nM | Ki [2]: 0.2 nM | Ki [3]: 0.15 nM
Substance: recombinant spectrin-binding domain of erythrocyte ankyrin (ankSBD) (from UniProt P16157 1-1881) (domain or fragment)
